From patent US11667697

What was measured:
[1] = molecular target: CPXV ortholog of L1 (cowpox virus); assay: cell-based or functional assay
[2] = molecular target: MPXV ortholog of L1 (monkeypox virus); assay: cell-based or functional assay
[3] = molecular target: VARV ortholog of L1 (variola virus); assay: purified antigen ELISA
[4] = molecular target: CPXV ortholog of L1 (cowpox virus); assay: lysate ELISA
[5] = molecular target: MPXV ortholog of L1 (monkeypox virus); assay: lysate ELISA
[6] = molecular target: MPXV ortholog of the A27 VACV protein (monkeypox virus); assay: cell-based or functional assay
[7] = molecular target: CPXV ortholog of A27 (cowpox virus); assay: cell-based or functional assay
[8] = molecular target: MPXV ortholog of the A27 VACV protein (monkeypox virus); assay: purified antigen ELISA
[9] = molecular target: VARV ortholog of A27 (variola virus); assay: purified antigen ELISA
[10] = molecular target: MPXV ortholog of the A27 VACV protein (monkeypox virus); assay: lysate ELISA
[11] = molecular target: CPXV ortholog of A27 (cowpox virus); assay: lysate ELISA
[12] = molecular target: MPXV ortholog of I1 (monkeypox virus); assay: cell-based or functional assay
[13] = molecular target: CPXV ortholog of I1 (cowpox virus); assay: lysate ELISA
[14] = molecular target: VACV I1 protein (vaccinia virus); assay: lysate ELISA
[15] = molecular target: MPXV ortholog of I1 (monkeypox virus); assay: lysate ELISA
[16] = molecular target: CPXV ortholog of B5 (cowpox virus); assay: cell-based or functional assay
[17] = molecular target: VARV ortholog of B5 (variola virus); assay: purified antigen ELISA
[18] = molecular target: CPXV ortholog of B5 (cowpox virus); assay: lysate ELISA
[19] = molecular target: MPXV ortholog of B5 (monkeypox virus); assay: lysate ELISA
[20] = molecular target: MPXV ortholog of A33 (monkeypox virus); assay: cell-based or functional assay
[21] = molecular target: VARV ortholog of A33 (variola virus); assay: purified antigen ELISA
[22] = molecular target: CPXV ortholog of A33 (cowpox virus); assay: lysate ELISA
[23] = molecular target: MPXV ortholog of A33 (monkeypox virus); assay: lysate ELISA
[24] = molecular target: MPXV ortholog of A25 (monkeypox virus); assay: lysate ELISA
[25] = molecular target: VACV A25 protein (vaccinia virus); assay: lysate ELISA
[26] = molecular target: CPXV ortholog of A25 (cowpox virus); assay: lysate ELISA
[27] = molecular target: VACV A21 protein (vaccinia virus); assay: purified antigen ELISA
[28] = molecular target: MPXV ortholog of H5 (monkeypox virus); assay: lysate ELISA
[29] = molecular target: CPXV ortholog of H5 (cowpox virus); assay: lysate ELISA
[30] = molecular target: VACV H5 protein (vaccinia virus); assay: lysate ELISA

B1: MPXV-87 (antibody, V domains shown)
V domain 1: QVQLVQSGAEVKKPGASVKVSCKASGYTFTSHGIIWVRQAPGQGLEWMGWISVYNDNTNSAQKFQDRVTMTTATSTSTAYMELRSLRSDDTAVYYCARSSSGPRYYYYGMDVWGQGTTSP
V domain 2: QSVVTQPPSVSGAPGQRVTISCTGSSSNIGAGYAVHWYYQLPGIAPKLLIFGNNNRPSGVPDRFSGSKSGTSASLAITGLQAEDEADYYCQSYDSSLSGWVFGGGTQVTVL
PRNT Emax, CPXV MV [1]: 63%
PRNT Emax, CPXV MV+C' [1]: 82%
PRNT IC50, CPXV MV [1]: 0.8 µg/mL
PRNT IC50, CPXV MV+C' [1]: 0.6 µg/mL
PRNT Emax, MPXV MV [2]: 57%
PRNT Emax, MPXV MV+C' [2]: 65%
PRNT IC50, MPXV MV [2]: 50 µg/mL
PRNT IC50, MPXV MV+C' [2]: 50 µg/mL
EC50 [3]: 0.3 µg/mL
EC50 [4]: 0.003 µg/mL
EC50 [5]: 0.001 µg/mL

B2: VACV-301 (antibody, V domains shown)
VH: EVQLLESGGGLVQPGGSLRLSCAASGFSFSSYAMSWVRQAPGKGLEWVSGIGNSGDRTFYADSAKGRFTIFRDNSNNRLYLQMNSLRAADTAVYYCAKWGRFESGAFWGQGVLVTVSS
VL: SYELTQSPSVSVSPGQTARITCSGDALPEQYAYWYQQKPGQAPVLVIYKDSERPSGIPERFSGSGSGTTVTLTITGVQAEDEADYYCQSADNSGTYEVFGTGTKVTVL
PRNT Emax, MPXV MV [6]: 84%
PRNT Emax, MPXV MV+C' [6]: 92%
PRNT IC50, MPXV MV [6]: 1.6 µg/mL
PRNT IC50, MPXV MV+C' [6]: 0.8 µg/mL
PRNT Emax, CPXV MV+C' [7]: 86%
PRNT IC50, CPXV MV+C' [7]: 4 µg/mL
EC50 [8]: 0.04 µg/mL
EC50 [9]: 0.11 µg/mL
EC50 [10]: > 5.6 µg/mL
EC50 [11]: > 1.4 µg/mL

B3: MPXV-97 (antibody, V domains shown)
VH: QVQLVQSGGGVVQPGRSLTLSCSASGFIFTRYGLHWVRQAPGKGLEWVAVISSDGTNRHYADSVKGRFTVSRDNSKSTLYVQMNSLRNEDTAVYYCARLSLEAAWYFDLWGRGTLVTVSS
VL: QSVVTQPPSVSGAPGQRVTISCTGSSSNIGAGYDVHWYQHLPGTAPKVLIYGNTNRPSGVPDRFSGSKSGTSASLAITGLQAEDEADYYCQSYDNSLNGPWVFGTGTQ
PRNT Emax, MPXV MV [12]: 96%
PRNT Emax, MPXV MV+C' [12]: 76%
PRNT IC50, MPXV MV [12]: 0.02 µg/mL
PRNT IC50, MPXV MV+C' [12]: 0.02 µg/mL
EC50 [13]: > 50 µg/mL
EC50 [14]: 0.008 µg/mL
EC50 [15]: 0.001 µg/mL

B4: MPXV-66 (antibody, V domains shown)
VH: QVQLQQWGAGLLKPSETLSLTCAVHGGSFSGYFWSWIRQPPGKGLEWIGEMNHSGSTNYNPSLKSRVTISVDTSKKQFSLKLNSVTAADTAVYYCARTARTVRYFENWGQGTLVTVSS
VL: DIVMTQSPDSLAVSLGERATINCKSSQTVLYNSNNYSYLTWYQQKPGQPPRVLIYWASTRESGVPDRFSGSGSGTDFTLTISSLQAENVALYYCQQYYSTPWTFGQGTKVDIK
PRNT Emax, CPXV EV+C' [16]: 86%
PRNT IC50, CPXV EV+C' [16]: 0.03 µg/mL
EC50 [17]: 0.16 µg/mL
EC50 [18]: > 29 µg/mL
EC50 [19]: > 16 µg/mL

B5: VACV-22 (antibody, V domains shown)
VH: QVQLVESGGGVVQPGRSLRLSCAASGFTFSNSGMHWVRQAPGKGLEWVAVIWFDGTNKYYADSVKGRFTISRDNSKNTLYLQMNSLRAEDTAVYYCARVPCGGDCYSGYLQHWGQGTLVTVSS
VL: AIVMTQSPATLSVSPGERATLSCRASQSVSSTLAWYQQKPGQAPRLLIYGASTKATGIPARFSGSGSGTEFTLTISSLQSEDFAVYYCQHYNNWPPLLTFGGGTKVDIK
PRNT Emax, MPXV EV+C' [20]: 72%
PRNT IC50, MPXV EV+C' [20]: 50 µg/mL
EC50 [21]: 0.02 µg/mL
EC50 [22]: > 0.009 µg/mL
EC50 [23]: > 0.006 µg/mL

B6: MPXV-51 (antibody, V domains shown)
VH: QLQLQESGPGLVKPSETLSLSCTVSGGSINSRTYYWGWIRQPPGKGPEWIGTVFHNVSTLYTSSLRSRVTISVDTSKNRFSLKLTSVTAADTAVYFCGRLTPRNLFRGTLVRWVDPWGQGILVTVSS
VL: EIVLAQSPGTLSLSPGERATLSCRASHNLNSNYLAWYQQKPGQAPRLLIYGASSRATGIPDRFTGSGSGTDFTLTISRLEPEDFAVYYCQQYAGSLTFGGGTKVDIK
PRNT Emax, MPXV EV+C' [20]: 77%
PRNT IC50, MPXV EV+C' [20]: 0.8 µg/mL
EC50 [21]: 0.04 µg/mL
EC50 [22]: 0.024 µg/mL
EC50 [23]: 0.025 µg/mL

B7: MPXV-31 (antibody, V domains shown)
VH: QLQLQESGPGLVKPSETLSLTCTVSGGSISSRNFFWAWIRQPPGKGLEFIGSIFYSGGTYYNPSLKSRLSISVDTSRNQFSLRLSSVTAADTAVYYCARHMIVVLPGVPISTSFDPWGQGTL
VL: DIVMTQSPDSLAVSLGERATINCKSSQSVLSNSNNKNYLAWYQQKPGQPPRLLIYWASARESGVPDRFSGSGSGTDFTLTIISLQPEDVAVYYCQQYYSPPAELSFGGGTKVDIK
EC50 [13]: 0.01 µg/mL
EC50 [14]: 0.01 µg/mL
EC50 [15]: 0.04 µg/mL

B8: MPXV-71 (antibody, V domains shown)
V domain 1: EVQLVESGGGLVQPGESLKISCSASGFTFSDYAMHWVRQAPGQGLQYVSAISSNGHSTYYADSVKGRFTFSRDNSKNTLYLQMSSLRPEDTAVYYCVRCLLRGLISPFDYWGQGTLV
V domain 2: QSVLTQPPSVSEAPRQRVTISCSGSSSNIGNNAVNWYQQLPGKAPKLLIYYDDLLPSGVSDRFSGSKSGTTASLTISGPPEDEADFYCSTWDYSLSARVFGGGTQVTVL
EC50 [13]: 0.014 µg/mL
EC50 [14]: 0.022 µg/mL
EC50 [15]: 0.006 µg/mL

B9: VACV-309 (antibody, V domains shown)
VH: EVQLLESGGGLVQPGESLKLSCAASGFTFSSYAMNWVRQAPGKGLEWVSGISGSGGSTYYADSVKGRFTVSRDNSKNTLYLQMNSLRAEDTAVYYCAKDNNYYYYGMDVWGQGTTVTVSS
VL: AIQMTQSPSSLSASVGDRVTITCRASQGIRNDLGWYQQKPGKAPKLLIYAASSLQSGVPSRFSGSGSGTDFTLTISSLQPEDFATYYCLQDYNYPRMFGQGTKVDIK
EC50 [24]: 0.001 µg/mL
EC50 [25]: 0.005 µg/mL
EC50 [26]: 0.005 µg/mL

B10: MPXV-9 (antibody, V domains shown)
VH: QVQLVQSGAEVKKPGASVKVSCKASGYNLTTYDIVWVRQAAGQGLEWMGWMNPKSGNTAYAERFQGRVTMTRNTSISTAYMELSSLRSEDTAVYYCARSLDSLRFLEWFHQNYYYFMDVWGKGTTVT
VL: EIVLTQSPATLSLSPGERATLSCRASQTIGGYLAWYQQIPGQAPRLLIYDASNRATGIPARFSGSGSGTDFTLTISSLEPEDFAVYYCQLRSTFGGGTKVDIK
EC50 [24]: 0.107 µg/mL
EC50 [25]: 0.022 µg/mL
EC50 [26]: 0.876 µg/mL

B11: VACV-318 (antibody, V domains shown)
VH: SYELTQPPSVSVSPGQTARITCSGDELPKRYAYWYQQKSGQAPVLVIYEDTKRPSGIPERFSGSSSGTVATLTISGAQVDDEADYYCYSTDSTSNHKRVFGGGTQVTVL
V domain: QVQLVESGGGVVQPGRSLRLSCTASGFNFSYYGIHWVRQAPGKGLQWVALISYDGSDKYYADSVKGRFTVSRDYSKNTLFLQMNSLRGDDTAVYYCQMVKVPFYFWGQGTMVTLSS
EC50 [27]: 1.3 µg/mL

B12: VACV-308 (antibody, V domains shown)
VH: QVQLVQSGAEVKKPGSSVKVSCKGSGDSFRSYAISWVRQAPGQGLEWMGGIIPRFGTTNYAQKFQDRVTITADKSTTTAYMELRSLKCEDTGVYYCARPQSAYDFGPFDHWGQGTLVTVSS
VL: SYELTQPPSLSVAPGKTARITCGGDNIGSKGVHWYQQKPGQAPVVVISYDSDRPSGIPERFSGSNSGDTATLTISRVEAGDEADYYCHVWHTTTDHYVFGTGTKVTVL
EC50 [28]: 0.003 µg/mL
EC50 [29]: 0.002 µg/mL
EC50 [30]: 0.006 µg/mL
